Three molecules from paper PMC10382590, “Six states of Enterococcus hirae V-type ATPase reveals non-uniform rotor rotation during turnover” (Communications Biology, 2023) can be followed below.

T1: Enterococcus hirae V-ATPase a-subunit (Enterococcus hirae, UniProt P43439 1-664)
T1 construct: a-subunit (stator, membrane-integrated region and extrinsic arm) of the V-type Na+-ATPase of Enterococcus hirae; Modelled by homology (I-TASSER, template PDB 6C6L of another species); also called stator a-subunit; source: E. coli, recombinant; purified as part of the whole EhV-ATPase complex (Ni-NTA, Superdex 200, 0.05% DDM)
T1 sequence (looked up): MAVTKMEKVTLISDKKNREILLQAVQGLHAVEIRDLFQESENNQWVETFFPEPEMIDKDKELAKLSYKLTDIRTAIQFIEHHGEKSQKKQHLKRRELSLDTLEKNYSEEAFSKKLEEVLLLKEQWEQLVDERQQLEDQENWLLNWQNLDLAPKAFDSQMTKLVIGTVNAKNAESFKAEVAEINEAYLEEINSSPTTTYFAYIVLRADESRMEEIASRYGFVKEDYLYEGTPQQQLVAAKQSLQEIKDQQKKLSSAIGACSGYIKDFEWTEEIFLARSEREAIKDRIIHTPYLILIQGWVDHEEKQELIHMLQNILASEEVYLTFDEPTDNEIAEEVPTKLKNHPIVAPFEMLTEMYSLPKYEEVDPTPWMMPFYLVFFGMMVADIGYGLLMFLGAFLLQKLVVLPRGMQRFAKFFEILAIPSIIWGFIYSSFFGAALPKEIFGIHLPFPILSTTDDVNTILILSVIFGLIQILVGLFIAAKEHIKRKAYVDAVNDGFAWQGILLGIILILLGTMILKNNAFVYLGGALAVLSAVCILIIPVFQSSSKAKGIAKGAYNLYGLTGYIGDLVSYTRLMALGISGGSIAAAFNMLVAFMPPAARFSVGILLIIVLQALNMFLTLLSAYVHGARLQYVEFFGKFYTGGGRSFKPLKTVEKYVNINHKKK

B1: Enterococcus hirae V-ATPase EG peripheral stalk (complex)
chain 1: MPIDKIITQINETAQLERASFEEMKRKEIDQKFEVKKWQIEADFQKEKASKLEEIERSYRQLRNKQKMQVKQEILNAKQEVLQRLFTEATLQLENEPKEEQLALMKQMIQTLPINGTARLIPGEKSADILTPAVIAEWNEELPFELIREDFTEKAQAGLIIDDAGIQYNFLFSHLIKEIQETMSAEIAKELFD
chain 2: MARILTRIKEAEENNQKKEEQVKAELAQYEQLKNNELIDLNKEFQERLTKLMKEKEKNEEEVTEDEQHKLELILEQFRQKVLEIEKTYLEKEEEEIAKKKNLTNEIIERMKQNNGCH
notes: E-subunit of the V-type Na+-ATPase of Enterococcus hirae; G-subunit of the V-type Na+-ATPase of Enterococcus hirae; Two such stalks stand in the complex; E and G were modelled by homology (templates PDB 4DT0 and 5GAS of other species); also called EG stalk complex; EG stalks; source: E. coli, recombinant; purified as part of the whole EhV-ATPase complex (Ni-NTA, Superdex 200, 0.05% DDM)
B2: Enterococcus hirae V-ATPase d-subunit (natural protein, UniProt P43456 1-328, looked up)
chain: MEYHELNPLIRGRELELISKDTFEQMIQTDSIDSLGEILQSTIYQPYIYDGFDKDFEANLSQERSKLFQWLKESAPEPEIVWIYTMRYTFHNLKVLTKAEITGQNLDHLYIHDGFYSLEVLKDAIHTQVSVELPDSLMDYIREVHEYCEESTILQGIDVIYDRCFLTEQRRLGEQLGYPELLEEIIAFIDLTNITTTARGILQHRSAGFMTTVISSSGSIPKDTLLSFVRGEMASFTQFLLTTDYSELLKQVIHEEQIDLVSLEQLKDDYLSSFYQVAQTQAFGPLPLLAFLNAKEVESKNLRLLIIGKRNHFSLEQLKERMRQVYDL
notes: d-subunit (terminus of the rotor shaft) of the V-type Na+-ATPase of Enterococcus hirae; Modelled by homology (I-TASSER, template PDB 1R5Z of another species) and fitted as a rigid body; also called rotor shaft terminus; source: E. coli, recombinant; purified as part of the whole EhV-ATPase complex (Ni-NTA, Superdex 200, 0.05% DDM)
B3: Enterococcus hirae V-ATPase D-subunit (natural protein)
chain: MRLNVNPTRMELTRLKKQLTTATRGHKLLKDKQDELMRQFILLIRKNNELRQAIEKETQTAMKDFVLAKSTVEEAFIDELLALPAENVSISVVEKNIMSVKVPLMNFQYDETLNETPLEYGYLHSNAELDRSIDGFTQLLPKLLKLAEVEKTCQLMAEEIEKTRRRVNALEYMTIPQLEETIYYIKMKLEENERAEVTRLIKVKNMGTEE
notes: D-subunit (rotor shaft) of the V-type Na+-ATPase of Enterococcus hirae; also called rotor D-subunit; source: E. coli, recombinant; purified as part of the whole EhV-ATPase complex (Ni-NTA, Superdex 200, 0.05% DDM)

For experiment [1], the target named is T1, Enterococcus hirae V-ATPase a-subunit. The experiment in a line: cryo-EM structure; detergent-solubilised (0.05% DDM) whole EhV-ATPase, 0.13 mM, with 7 mM ATP, 100 mM Na+ and Mg2+, vitrified during turnover; six states (1, 1', 2, 2', 3, 3') sorted from one sample, whole-complex maps 4.3-7.7 A, V1-focussed maps 3.8-7.7 A; crystal structures and homology models fitted into the maps. The note with it: both partners purified.

The target in experiment [2] is B2. The experiment is described as above. The note with it: both partners purified.

For the molecule B1, the binding result in experiment [1] is “binds”.

For the molecule B2, in experiment [1], the binding result was “binds”.

For B3, in experiment [2], the binding result is recorded as “binds”.
